Measurements as given in paper PMC10397247.
Values belong to the binder of their own block, whether it stands above or below them.

Experiments:
4H432-AA = molecular target: T1, 4H432-AA; assay: two-hybrid library CCmax; details: mean of both orientations;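 note: natural log of median RNA to DNA barcode read ratio; higher means stronger binding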
T1 chain: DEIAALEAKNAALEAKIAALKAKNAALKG

4H3619-AA = molecular target: T2, 4H3619-AA; assay: two-hybrid library CCmax;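 note: natural log of median RNA to DNA barcode read ratio; higher means stronger binding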
T2 chain: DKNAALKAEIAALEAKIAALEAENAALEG

4H63-AA = molecular target: T3, 4H63-AA; assay: two-hybrid library CCmax; details: mean of both orientations;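 note: natural log of median RNA to DNA barcode read ratio; higher means stronger binding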
T3 chain: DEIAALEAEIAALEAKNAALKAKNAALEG

4H3974-AA = molecular target: T4, 4H3974-AA; assay: two-hybrid library CCmax; details: mean of both orientations;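 note: natural log of median RNA to DNA barcode read ratio; higher means stronger binding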
T4 chain: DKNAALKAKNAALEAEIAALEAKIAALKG

4H3777-AA = molecular target: T5, 4H3777-AA; assay: two-hybrid library CCmax; details: mean of both orientations;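 note: natural log of median RNA to DNA barcode read ratio; higher means stronger binding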
T5 chain: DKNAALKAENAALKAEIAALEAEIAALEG

4H380-AA = molecular target: T6, 4H380-AA; assay: two-hybrid library CCmax; details: mean of both orientations;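 note: natural log of median RNA to DNA barcode read ratio; higher means stronger binding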
T6 chain: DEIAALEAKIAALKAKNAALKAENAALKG

4H446-AA = molecular target: T7, 4H446-AA; assay: two-hybrid library CCmax; details: mean of both orientations
T7 chain: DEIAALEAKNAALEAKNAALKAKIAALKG

4H3915-AA = molecular target: T8, 4H3915-AA; assay: two-hybrid library CCmax; details: mean of both orientations
T8 chain: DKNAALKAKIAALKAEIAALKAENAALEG

4H3629-AA = molecular target: T9, 4H3629-AA; assay: two-hybrid library CCmax; details: mean of both orientations
T9 chain: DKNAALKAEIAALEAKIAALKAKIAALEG

4H953-bH = molecular target: T10, 4H953-bH; assay: two-hybrid library CCNG1
T10 chain: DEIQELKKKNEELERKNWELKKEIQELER

4H918-bH = molecular target: T11, 4H918-bH; assay: two-hybrid library CCNG1
T11 chain: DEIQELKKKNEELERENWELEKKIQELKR

4H967-bH = molecular target: T12, 4H967-bH; assay: two-hybrid library CCNG1
T12 chain: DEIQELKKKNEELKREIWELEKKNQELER

4H968-bH = molecular target: T13, 4H968-bH; assay: two-hybrid library CCNG1
T13 chain: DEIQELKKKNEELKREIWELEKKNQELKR

4H932-bA = molecular target: T14, 4H932-bA; assay: two-hybrid library CCNG1
T14 chain: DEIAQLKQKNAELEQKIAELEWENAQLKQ

4H87-AA = molecular target: T15, 4H87-AA; assay: two-hybrid library CCmax
T15 chain: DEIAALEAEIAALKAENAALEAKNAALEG

4H3709-AA = molecular target: T16, 4H3709-AA; assay: two-hybrid library CCmax; details: mean of both orientations
T16 chain: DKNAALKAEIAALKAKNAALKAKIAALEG

4H391-AA = molecular target: T17, 4H391-AA; assay: two-hybrid library CCmax; details: mean of both orientations
T17 chain: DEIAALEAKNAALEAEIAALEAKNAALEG

4H497-AA = molecular target: T18, 4H497-AA; assay: two-hybrid library CCmax; details: mean of both orientations
T18 chain: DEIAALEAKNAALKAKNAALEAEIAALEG

4H3939-AA = molecular target: T19, 4H3939-AA; assay: two-hybrid library CCmax; details: mean of both orientations
T19 chain: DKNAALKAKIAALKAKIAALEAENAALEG

4H3920-AA = molecular target: T20, 4H3920-AA; assay: two-hybrid library CCmax; details: mean of both orientations
T20 chain: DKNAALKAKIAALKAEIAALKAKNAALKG

4H478-AA = molecular target: T21, 4H478-AA; assay: two-hybrid library CCmax; details: mean of both orientations
T21 chain: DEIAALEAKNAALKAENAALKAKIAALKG

4H428-AA = molecular target: T22, 4H428-AA; assay: two-hybrid library CCmax; details: mean of both orientations
T22 chain: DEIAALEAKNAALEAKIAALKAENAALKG

4H656-AA = molecular target: T23, 4H656-AA; assay: two-hybrid library CCmax; details: mean of both orientations
T23 chain: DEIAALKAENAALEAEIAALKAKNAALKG

4H3666-AA = molecular target: T24, 4H3666-AA; assay: two-hybrid library CCmax; details: mean of both orientations
T24 chain: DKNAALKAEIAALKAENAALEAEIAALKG

4H675-AA = molecular target: T25, 4H675-AA; assay: two-hybrid library CCmax; details: mean of both orientations
T25 chain: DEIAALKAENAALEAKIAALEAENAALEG

4H971-AA = molecular target: T26, 4H971-AA; assay: two-hybrid library CCmax; details: mean of both orientations
T26 chain: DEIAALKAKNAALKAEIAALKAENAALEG

4H3628-AA = molecular target: T27, 4H3628-AA; assay: two-hybrid library CCmax
T27 chain: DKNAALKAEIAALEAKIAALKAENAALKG

4H754-bH = molecular target: T28, 4H754-bH; assay: two-hybrid library CCNG1
T28 chain: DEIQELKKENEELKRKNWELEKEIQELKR

4H72-bH = molecular target: T29, 4H72-bH; assay: two-hybrid library CCNG1
T29 chain: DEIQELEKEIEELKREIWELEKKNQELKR

4H717-bH = molecular target: T30, 4H717-bH; assay: two-hybrid library CCNG1
T30 chain: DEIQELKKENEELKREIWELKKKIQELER

4H908-bH = molecular target: T31, 4H908-bH; assay: two-hybrid library CCNG1
T31 chain: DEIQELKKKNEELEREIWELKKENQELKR

4H607-bH = molecular target: T32, 4H607-bH; assay: two-hybrid library CCNG1
T32 chain: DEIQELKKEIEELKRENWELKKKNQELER

4H883-bH = molecular target: T33, 4H883-bH; assay: two-hybrid library CCNG1
T33 chain: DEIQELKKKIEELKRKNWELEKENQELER

4H687-bH = molecular target: T34, 4H687-bH; assay: two-hybrid library CCNG1
T34 chain: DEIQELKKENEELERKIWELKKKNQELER

4H797-bH = molecular target: T35, 4H797-bH; assay: two-hybrid library CCNG1
T35 chain: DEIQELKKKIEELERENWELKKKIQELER

APC8910-AA = molecular target: T36, APC8910-AA; assay: two-hybrid library CCmax
T36 chain: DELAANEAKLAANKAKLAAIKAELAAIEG

APC9319-AA = molecular target: T37, APC9319-AA; assay: two-hybrid library CCmax; details: mean of both orientations
T37 chain: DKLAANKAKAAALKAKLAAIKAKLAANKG

APC9096-AA = molecular target: T38, APC9096-AA; assay: two-hybrid library CCmax; details: mean of both orientations
T38 chain: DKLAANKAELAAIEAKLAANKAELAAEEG

interaction score (4H432-AA): -0.708
interaction score (4H3619-AA): -1.28
interaction score (4H63-AA): -0.357
interaction score (4H3974-AA): -0.337
interaction score (4H3777-AA): -1.36
interaction score (4H380-AA): -0.137
interaction score (4H446-AA): -1.21
interaction score (4H3915-AA): -0.429
interaction score (4H3629-AA): 0.411
B1: 4H3619-AA (peptide)
chain: DKNAALKAEIAALEAKIAALEAENAALEG

interaction score (4H953-bH): -0.806
interaction score (4H918-bH): 1.26
interaction score (4H967-bH): -0.25
interaction score (4H968-bH): -0.174
interaction score (4H932-bA): -1.28
B2: 4H918-bH (peptide)
chain: DEIQELKKKNEELERENWELEKKIQELKR

interaction score (4H87-AA): -0.571
B3: 4H87-AA (peptide)
chain: DEIAALEAEIAALKAENAALEAKNAALEG

interaction score (4H3709-AA): -1.58
interaction score (4H391-AA): -1.27
interaction score (4H497-AA): -1.67
interaction score (4H3939-AA): 0.744
interaction score (4H3920-AA): 0.724
interaction score (4H478-AA): -2.19
interaction score (4H428-AA): -0.847
interaction score (4H656-AA): -1.43
interaction score (4H3666-AA): -1.56
interaction score (4H675-AA): -1.51
interaction score (4H971-AA): -1.01
interaction score (4H3628-AA): 0.286
B4: 4H3628-AA (peptide)
chain: DKNAALKAEIAALEAKIAALKAENAALKG

interaction score (4H754-bH): -0.342
interaction score (4H953-bH): -0.825
interaction score (4H918-bH): -0.801
interaction score (4H72-bH): -1.24
interaction score (4H967-bH): -2
interaction score (4H717-bH): 0.512
interaction score (4H908-bH): -1.04
interaction score (4H607-bH): 0.163
interaction score (4H883-bH): 0.522
interaction score (4H687-bH): -0.72
interaction score (4H797-bH): -1.49
B5: 4H607-bH (peptide)
chain: DEIQELKKEIEELKRENWELKKKNQELER

interaction score (APC8910-AA): -2.88
interaction score (APC9319-AA): -2.07
interaction score (APC9096-AA): -2.09
B6: APC8910-AA (peptide)
chain: DELAANEAKLAANKAKLAAIKAELAAIEG
